Data published in patent publication US8309097B2, “C-type lectin binding molecules, identification and uses thereof” (Vereniging voor Christelijk Wetenschappelijk Onderwijs, priority 2002, dated 2012).

How the values were obtained:
[1] = biological target: T1, DC-SIGN on immature monocyte derived DC (Homo sapiens, UniProt Q9NNX6); assay: Fluorescent bead adhesion assay, immature DC; type: cell-based
T1 construct: Immature DC were cultured from monocytes in the presence of IL-4 and GM-CSF; endogenous in cells; host or cells: immature monocyte-derived dendritic cells
T1 sequence (Q9NNX6 1-404): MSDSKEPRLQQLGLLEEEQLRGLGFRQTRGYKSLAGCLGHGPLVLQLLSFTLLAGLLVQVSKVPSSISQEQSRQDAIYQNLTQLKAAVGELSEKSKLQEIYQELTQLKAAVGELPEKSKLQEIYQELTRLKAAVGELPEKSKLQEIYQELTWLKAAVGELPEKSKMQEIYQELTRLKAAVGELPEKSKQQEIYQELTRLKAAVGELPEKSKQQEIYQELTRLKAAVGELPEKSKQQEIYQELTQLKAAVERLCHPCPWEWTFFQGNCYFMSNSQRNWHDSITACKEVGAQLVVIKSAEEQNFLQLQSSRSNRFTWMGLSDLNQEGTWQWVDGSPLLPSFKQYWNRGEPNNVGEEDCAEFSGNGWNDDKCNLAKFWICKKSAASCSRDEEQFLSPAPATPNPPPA

[2] = biological target: T2, DC-SIGN-Fc (Homo sapiens, UniProt Q9NNX6); assay: Immunoprecipitation and detection with DC-SIGN-Fc; type: binding
T2 sequence (Q9NNX6 64-404): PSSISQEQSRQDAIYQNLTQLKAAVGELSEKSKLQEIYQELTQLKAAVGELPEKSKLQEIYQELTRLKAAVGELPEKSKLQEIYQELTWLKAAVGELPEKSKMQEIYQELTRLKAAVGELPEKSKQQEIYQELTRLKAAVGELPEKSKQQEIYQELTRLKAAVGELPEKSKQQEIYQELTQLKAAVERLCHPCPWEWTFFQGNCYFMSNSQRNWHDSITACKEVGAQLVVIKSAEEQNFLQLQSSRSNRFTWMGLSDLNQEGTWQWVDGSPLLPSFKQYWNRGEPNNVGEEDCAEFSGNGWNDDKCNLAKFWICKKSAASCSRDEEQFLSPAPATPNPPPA
Excerpt: FIG. 59. […] Cell-surface proteins are biotinylated and PMNs are lysed. Lane 1. negative control using ICAM-3 Fc to capture by IP proteins. Detection is peroxidase-labeled streptavidin. Lane 2. DC-SIGN-Fc is used to capture ligands biotinylated ligands from lysate; two protein bands are visible, the upper band consists of CD11b and CD66a, whereas the lower consists of CD18. Lane 3. Negative control; no bands are immune precipitated with anti-DC-SIGN antibodies. Lane 4, IP with antibodies against CD66acd; a faint band is visible containing CD66a. Lane 5, IP of CD11b; two bands are visible; the upper band is […] and the lower band is CD18m, which is co-immuneprecipitated with […]. Lane 6. IP with DC-SIGN ligands and detection with anti-CD66acd; CD66a is captured by DC-SIGN Fc. Lane 7. IP with DC-SIGN ligands and detection with anti-CD11b; CD11b is captured by DC-SIGN Fc. Lane 8. Negative control, IP with anti-DC-SIGN antibodies and detection with DC-SIGN-Fc. Lane 9. IP with anti-CD66acd and detection with DC-SIGN Fc; CD66a is bound by DC-SIGN on blot. Lane 10. IP with anti-CD11a and detection with DC-SIGN Fc; CD11a is bound by DC-SIGN on blot.
Immunoprecipitation. […]

[3] = biological target: T2, DC-SIGN-Fc; assay: Soluble DC-SIGN-Fc adhesion assay (Fc ELISA); settings: ELISA, ligand coated
[4] = biological target: T3, DC-SIGN expressed by K562 transfectants (Homo sapiens, UniProt Q9NNX6); type: cell-based
T3 construct: expressed in transfected cells; host or cells: K562
T3 sequence (Q9NNX6 1-404): T1 sequence (Q9NNX6 1-404)

B1: RNAseB: control inhibitor in DC adhesion assay (protein, UniProt P61823 27-150, looked up)
Ribonuclease pancreatic: KETAAAKFERQHMDSSTSAASSSNYCNQMMKSRNLTKDRCKPVNTFVHESLADVQAVCSQKNVACKNGQTNCYQSYSTMSITDCRETGSSKYPNCAYKTTQANKHIIVACEGNPYVPVHFDASV
modifications: glycoform B
inhibition of HIV-1 gp120 adhesion to DC [1]: does not block
inhibition of ICAM-3 adhesion to DC ([1]; inhibitors 20 μg/ml): does not block

B2: CD66e: tumor antigen CEA from SW948 tumor cell lysate (protein, UniProt P06731 35-685, looked up)
Cell adhesion molecule CEACAM5: KLTIESTPFNVAEGKEVLLLVHNLPQHLFGYSWYKGERVDGNRQIIGYVIGTQQATPGPAYSGREIIYPNASLLIQNIIQNDTGFYTLHVIKSDLVNEEATGQFRVYPELPKPSISSNNSKPVEDKDAVAFTCEPETQDATYLWWVNNQSLPVSPRLQLSNGNRTLTLFNVTRNDTASYKCETQNPVSARRSDSVILNVLYGPDAPTISPLNTSYRSGENLNLSCHAASNPPAQYSWFVNGTFQQSTQELFIPNITVNNSGSYTCQAHNSDTGLNRTTVTTITVYAEPPKPFITSNNSNPVEDEDAVALTCEPEIQNTTYLWWVNNQSLPVSPRLQLSNDNRTLTLLSVTRNDVGPYECGIQNELSVDHSDPVILNVLYGPDDPTISPSYTYYRPGVNLSLSCHAASNPPAQYSWLIDGNIQQHTQELFISNITEKNSGLYTCQANNSASGHSRTTVKTITVSAELPKPSISSNNSKPVEDKDAVAFTCEPEAQNTTYLWWVNGQSLPVSPRLQLSNGNRTLTLFNVTRNDARAYVCGIQNSVSANRSDPVTLDVLYGPDTPIISPPDSSYLSGANLNLSCHSASNPSPQYSWRINGIPQQHTQVLFIAKITPNNNGTYACFVSNLATGRNNSIVKSITVSASGTSPGLSA
binding of DC-SIGN-Fc to immunoprecipitated ligand [2]: binds
binding of DC-SIGN-Fc after α-1,3,4 Fucosidase treatment of the ligand ([2]; immunoprecipitation): abrogated
binding of DC-SIGN-Fc to coated ligand [3]: bound

B3: ICAM-3: cellular ligand of DC-SIGN (protein)
chain: QEFLLRVEPQNPVLSAGGSLFVNCSTDCPSSEKIALETSLSKELVASGMGWAAFNLSNVTGNSRILCSVYCNGSQITGSSNITVYRLPERVELAPLPPWQPVGQNFTLRCQVEDGSPRTSLTVVLLRWEEELSRQPAVEEPAEVTATVLASRDDHGAPFSCRTELDMQPQGLGLFVNTSAPRQLRTFVLPVTPPRLVAPRFLEVETSWPVDCTLDGLFPASEAQVYLALGDQMLNATVMNHGDTLTATATATARADQEGAREIVCNVTLGGERREARENLTVFSFLGPIVNLSEPTAHEGSTVTVSCMAGARVQVTLDGVPAAAPGQPAQLQLNATESDDGRSFFCSATLEVDGEFLHRNSSVQLRVLYGPKIDRATCPQHLKWKDKTRHVLQCQARGNPYPELRCLKEGSSREVPVGIPFFVNVTHNGTYQCQASSSRGKYTLVVVMDIEAGSSH
binding of DC-SIGN-Fc to coated ligand [3]: does not recognize

B4: CEACAM1: native CEACAM1 (CD66) from PMN (protein, UniProt P13688 35-526, looked up)
Cell adhesion molecule CEACAM1: QLTTESMPFNVAEGKEVLLLVHNLPQQLFGYSWYKGERVDGNRQIVGYAIGTQQATPGPANSGRETIYPNASLLIQNVTQNDTGFYTLQVIKSDLVNEEATGQFHVYPELPKPSISSNNSNPVEDKDAVAFTCEPETQDTTYLWWINNQSLPVSPRLQLSNGNRTLTLLSVTRNDTGPYECEIQNPVSANRSDPVTLNVTYGPDTPTISPSDTYYRPGANLSLSCYAASNPPAQYSWLINGTFQQSTQELFIPNITVNNSGSYTCHANNSVTGCNRTTVKTIIVTELSPVVAKPQIKASKTTVTGDKDSVNLTCSTNDTGISIRWFFKNQSLPSSERMKLSQGNTTLSINPVKREDAGTYWCEVFNPISKNQSDPIMLNVNYNALPQENGLSPGAIAGIVIGVVALVALIAVALACFLHFGKTGRASDQRDLTEHKPSVSNHTQDHSNDPPNKMNEVTYSTLNFEAQQPTQPTSASPSLTATEIIYSEVKKQ
binding of ligand-coated beads to K562 DC-SIGN transfectants [4]: binds
binding of ligand-coated beads to immature DC [1]: binds
binding of DC-SIGN-Fc to coated ligand [3]: is a ligand of DC-SIGN
